The source of these data is article PMC9917816, “STS1 and STS2 Phosphatase Inhibitor Baicalein Enhances the Expansion of Hematopoietic and Progenitor Stem Cells and Alleviates 5-Fluorouracil-Induced Myelosuppression” (International Journal of Molecular Sciences, 2023).

Substrate in the data set: O=[N+]([O-])c1ccc(OP(=O)(O)O)cc1
Kind of data set: purified protein. It counts as biochemical, Homo sapiens. The settings on record: 25 mM HEPES, 50 mM NaCl, 5 mM DTT, 2.5 mM EDTA, pH 7.2, 25 °C.

[1] abbreviates: 20 min, text (b9) says STS2 has lower Km than STS1, against the table.

By Km is commonly meant the concentration of substrate that gives half-maximal velocity. What is called kcat is the number of substrate molecules converted per active site and unit of time at saturation. In general, kcat/Km refers to the second-order rate constant that governs catalysis at low substrate concentration.

B1: STS1-HP (STS1 histidine phosphatase domain) (Homo sapiens) (protein)
chain: GPQKRCLFVCRHGERMDVVFGKYWLSQCFDAKGRYIRTNLNMPHSLPQRSGGFRDYEKDAPITVFGCMQARLVGEALLESNTIIDHVYCSPSLRCVQTAHNILKGLQQENHLKIRVEPGLFEWTKWVAGSTLPAWIPPSELAAANLSVDTTYRPHIPISKLVVSESYDTYISRSFQVTKEIISECKSKGNNILIVAHASSLEACTCQLQGLSPQNSKDFVQMVRKIPYLGFCSCEELGETGIWQLTDPPILPLTHGPTGGFNWRETLLQE
Regarding B1, under “10 min”, the Km turned out to be 3.52 ± 0.44 mM, the kcat came out at 67.7 ± 1.31 s⁻¹ and the kcat/Km was found to be 19500 ± 2100 M⁻¹ s⁻¹.

B2: STS2-HP (STS2 histidine phosphatase domain) (Homo sapiens) (protein)
chain: SLQALQATVARKSVLVVRHGERVDQIFGKAWLQQCSTPDGKYYRPDLNFPCSLPRRSRGIKDFENDPPLSSCGIFQSRIAGDALLDSGIRISSVFASPALRCVQTAKLILEELKLEKKIKIRVEPGIFEWTKWEAGKTTPTLMSLEELKEANFNIDTDYRPAFPLSALMPAESYQEYMDRCTASMVQIVNTCPQDTGVILIVSHGSTLDSCTRPLLGLPPRECGDFAQLVRKIPSLGMCFCEENKEEGKWELVNPPVKTLTHGANAAFNWRNWISGN
Take B2: under setting [1], the Km worked out at 5.39 ± 0.52 mM, the kcat was 0.27 ± 0.005 s⁻¹ and the kcat/Km came out at 50.5 ± 4.51 M⁻¹ s⁻¹.
